Results from the supplement of paper PMC12042874.
± gives the uncertainty stated by the source.

Test: amyloid nucleation score (Sup35N fusion, yeast selection) (log enrichment); library NNK3; higher = more nucleation; inactive = no reads after selection
How it was run: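 The nucleation score is the DiMSum log enrichment of output over input reads, centred on the mode score of non-aggregating sequences. Only sequences with 100 or more input reads were scored, using Illumina sequencing of input and output plasmid inserts. Psi-negative yeast expressing Sup35N fused to peptides of 20 random codons were induced 24 hours with 100 μM copper sulfate and grown 7 days at 30°C on medium lacking adenine and uracil.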

Substance | amyloid nucleation score
CHHYHMWLRFGSVEWIRGMD | -0.052 ± 0.38
CWTVMFCF | 1.43 ± 0.11
SCVAVSI | inactive
VGNYINVANMYSWGVIIRND | 2.39 ± 0.072
NYLRLFLISIAYKSVLSVML | inactive
RSQNF | inactive
ILYSSYS | inactive
CYFSIYYYSYLLFRMLGVKW | inactive
TCSFECGACTRQVDAVCQLG | inactive
SNACCGWAICCSPCGGKGVS | 1.45 ± 0.13
HVPGRIWDVFTRLLNEVLTN | inactive
LTNCRHSWWEDTTYSMWEVQ | inactive
MRPITGVMVLNVSNRQITLF | 1.72 ± 0.088
RLLLGTIYSFLKLHGDFNGR | inactive
YAFIL | inactive
WIFMSYWCVDLMPQLLHECW | inactive
YIYRKCVD | inactive
SVLSVV | inactive
VNDSAGVKLAVDCERTRKGG | -0.5 ± 0.98
FGMVFHISIACKWTGFSMR | inactive
RMKFGADIAVVHVCPMEFSG | inactive
LLPDRFANPGETWVLNYKLM | inactive
WLLDSRDGMRRKRAPRRVFA | inactive

Substance | amyloid nucleation score
SLPACKSGVKNTYVLYLTWN | 1.19 ± 0.11
MQMMGNEILRFFFVSVLNIN | inactive
TDSCKGVWIMVGFALFLMWS | inactive
SSLCYTHRACTCNFTKVDSF | inactive
RFTMWRNDHC | 0.421 ± 0.38
HKYKQIWMFPEGPV | inactive
LINNSEASLIHYIYGRGNVQ | -0.664 ± 1.9
WSTPDFRGLHYSTVFITIFA | 0.194 ± 0.51
ILPPNWATSRVNAAGWFLGQ | inactive
QYISIENHPEACMQGSTCYS | inactive
AVCFRVLCFKLLTT | inactive
VLLVLVI | inactive
FYTWLPCVYSN | -0.335 ± 1.7
TTDLKC | inactive
WVWSKL | inactive
IEGSYIDMFLYSYLMSGSLI | inactive
TFEEFESTARLGFHERGDFY | inactive
HTIRL | inactive
GWNSRM | inactive
YNAYLKENLILLYLCRSSRE | 2.17 ± 0.063
MSCSASSSGKAWFGGSPTWW | 0.674 ± 0.3
HRCDAWYYRS | inactive
LNCQYTFHAKCSFLHPSLL | 0.928 ± 0.21

Substance | amyloid nucleation score
LSLCRNKSIKWVFSLMEIL | inactive
LLVRMILNYKELLVTAILQV | inactive
RKRYFWNHAEISILKTSSSW | inactive
SALEVFLWNKYLFVDVTLLL | inactive
MHNRLVNDPACPVSTSSL | inactive
LTAVLLTPYSLFGFALWWFV | -0.487 ± 1.4
KSMATMSQIVPDSFSEFDWY | inactive
SVLVIFVLLSIGSAVKLNYG | inactive
VRVLMSL | -0.087 ± 0.45
MLYVLSYWLLKMPQMLNVNP | inactive
FVLRTNWGGISVYIYDVCSC | -0.238 ± 1.1
TRSWVYCSKDRSMRGMHHHC | inactive
GYNICWTPWYAVLDGVTKML | inactive
LINAYQLLFQNHQKEMMFVT | inactive
GSWTVLQNRHQAERVVSVYR | inactive
HFLHYRPTGNHRLFWIRKDY | inactive
LVFYMFAFITFVIYMMLIFY | 0.163 ± 0.29
CNTGPEIMASVAKVDVWVIK | 1.65 ± 0.11
EFGLRWMS | 0.447 ± 0.34
GVGFQGYVTRGKNRLRDRAQ | inactive
VNLFHSYCMAISRIITISSL | inactive
RLFRWMPDNVTGRWMVYAWF | inactive
VRNRWA | inactive

Substance | amyloid nucleation score
DSLKSKFSKVLGPLNRACFY | inactive
YDNANGRTRIIMISGRVSNY | inactive
PTNLYCHRMGEVSVYCRNLR | inactive
GRRYRKFDNTGGNSPK | inactive
CDFALCSRWQVVYVKKQGQW | 2.1 ± 0.07
LCETCKNVARIYSFLIGMTD | inactive
GGNGVPRVWSVFIRRVWNSV | inactive
RFSCEYVATLTLSGRQAVKH | 0.043 ± 0.72
VYRCVFWDVCAWCFKFR | 0.778 ± 0.14
RMPRQGLWMRVF | inactive
SSYAYMRVCAFKVVEMVYWR | inactive
FSLTLCWHWSWVQCAGVPWG | 2.05 ± 0.097
CCQLGESTENGLFSDDWRCE | inactive
IWKRLYPFTVRQVSCTIMCD | inactive
PVQQSGLVWRLGAIVVC | inactive
TYTSVGETS | inactive
WLKWFLRTCNMVKIFASPFF | inactive
CIVLLLTPSLGDWYTEDDFL | inactive
AGGSVYKIVEFSCLLFNQKY | inactive
EVRLLGYLVTRNDM | inactive
RTLTLLYTFF | 2.56 ± 0.052
MRICFFDSIQHYQKNQD | 2.1 ± 0.071
CYLISILPLGLFIDSLAWVT | inactive

Substance | amyloid nucleation score
HFFMLGLYTSACHLESNYDC | 0.758 ± 0.1
LSEWMSESGNFEFCVASLYR | inactive
VARELGLCYVWAGSRGVSRV | -0.323 ± 1.8
VVCLYILHIPCSVRRHTLAD | inactive
LFVMGRFVSFALFTWKTDNV | inactive
ETPSALCILYVFYCHAYWSH | inactive
VSRVTRLNKFISVVHDSCEV | inactive
CMTTASVQDKMVLLVWLLDE | inactive
RTRTCRYFLIVYSVVCLMSI | inactive
QWFHVSLS | inactive
LLRSQASTATGYH | inactive
EIAVVRKVLYPYCRYVLICS | inactive
LLYETLLIIMCGKCLQFYIV | inactive
DCLDNK | inactive
GRLIPREGT | inactive
LELVYGKIYSDPSTFRGHLV | inactive
GANSGFRGIDGLLPALDKQE | inactive
CSCFYNNRIISSPMLLWLVQ | inactive
QVSFFSQIRV | inactive
YLTEWDLGNVWRNPSAATPM | inactive
INEWFGSKDFAETGHLEVRY | inactive
IKNEQSARRGASSCGGTADK | inactive
LCALTS | inactive

Substance | amyloid nucleation score
RSAERRAQNSNFKLVDLGRN | inactive
HLGYTVYSRTMRSSFVFRVL | inactive
VIALDVNL | inactive
NGKWKGWSS | inactive
ARCECESSTRVSSLVYLSRE | inactive
LVSVGSDWDCLHFISGKFPG | inactive
YLVVHW | inactive
GFVNSVRFDLIECDVLKRSN | inactive
YQGYRFNC | inactive
RTSLYICINKRTLSHRLFPC | inactive
NVGWIWPYM | inactive
SVDFVIPGSVKSVRFVVELV | inactive
VVRCLLFVQLGCSKNLVAFQ | 1.12 ± 0.12
DINAVT | inactive
LLCYWSLA | inactive
YYYLKCFTYCVLLFYYS | inactive
SSIWSGMSLFGFREIMSYVI | inactive
FLSEIGADTTKSYWDTIPRF | -1.2 ± 2.5
LMLNGHAVHMSSNSEALVIC | inactive
FWSSFAMRAYSVIWYTLSTC | inactive
VNSMSC | inactive
FRRYRRCDLGLLSSMRPSAH | inactive
RRKKQFFFLFFSHRNLFFPV | 2.18 ± 0.097

Substance | amyloid nucleation score
LRRMDQMANDLFAI | inactive
YYVTQGVRVGQYLTNRERDE | -0.195 ± 0.44
IVYWCLVRNLEKLCCSYFTG | inactive
RWLFRSWPGRRMA | inactive
VWFGESAFRLVSELCIIKDV | inactive
KLFRIKNGSVEVIWYRNMCQ | 0.973 ± 0.14
VMFCFKRHLL | 0.922 ± 0.15
SERYEEMTFSDGYMFSRDDL | inactive
VWCLFTSLSS | inactive
QFSRPGIFNFHRWDSRYRAA | inactive
VFPLSAY | inactive
FLDSSVW | inactive
GSMSLIYYGLRRKVMGYVLS | 0.316 ± 0.7
PDLIHFTCLSSWFSSVVALV | inactive
FICFFGYS | inactive
RNLSLDLT | inactive
IFHFAATHEWYIMYYIDGSP | inactive
SFYYILYTGCVIGIVASLFK | -0.408 ± 0.58
RCYFKYP | 1.32 ± 0.13
CELLCFTGLSDYNTGSGVRR | inactive
DLIQLDALWDVRTHWTWGTP | inactive
FRYNDFMRD | inactive
